Substitutions are numbered along the chain they refer to. Blank lines part the entries; values can stand above or below the binder they belong to.
How the values were obtained:
Test in all cases: SPR; biotinylated-Avitagged Sd proteins immobilized on sensor chips; Yki^30-146 or Vg^263-382 as analyte; carried out as previously described (ref. 28)
Conditions in all cases: both partners purified
[1] = biological target: T1, Scalloped, residues 223-440, wild type (Sd^223-440) (Drosophila melanogaster, UniProt P30052 223-440, acylated to completion with Myristoyl-Coenzyme A: a mixture acylated on Cys373 (hydroxylamine-sensitive, 47%) or on Lys350 (hydroxylamine-insensitive, 54%); biotin on the Avitag)
T1 construct: Scalloped (Sd), Drosophila homolog of human TEAD, UniProtKB P30052, residues 223-440; also called wt^Sd
T1 sequence (looked up): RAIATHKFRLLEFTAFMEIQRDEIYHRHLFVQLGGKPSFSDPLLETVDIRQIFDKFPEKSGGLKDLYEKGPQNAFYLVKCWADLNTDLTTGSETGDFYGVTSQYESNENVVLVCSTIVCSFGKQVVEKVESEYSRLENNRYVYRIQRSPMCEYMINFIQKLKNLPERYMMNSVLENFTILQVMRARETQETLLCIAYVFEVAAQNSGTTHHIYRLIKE

[2] = biological target: T2, Scalloped, residues 223-440, Glu352Gln mutant (Glu352Gln^Sd) (Drosophila melanogaster, UniProt P30052 223-440, Glu352Gln, acylated to completion with Myristoyl-Coenzyme A: predominantly on Lys350 (hydroxylamine-insensitive, 90%), the rest on Cys373 (10%); biotin on the Avitag)
T2 construct: Scalloped (Sd), Drosophila homolog of human TEAD, UniProtKB P30052, residues 223-440, with Glu352Gln; Mutation introduced into wt^Sd; source: E. coli, purified in a similar manner to wt^Sd, treated with Myristoyl-Coenzyme A
T2 sequence (looked up): T1 sequence (looked up) with E130Q

[3] = biological target: T3, Scalloped, residues 223-440, Lys350Ala mutant (Lys350Ala^Sd) (Drosophila melanogaster, UniProt P30052 223-440, Lys350Ala, acylated to completion with Myristoyl-Coenzyme A, only on Cys373 (hydroxylamine-sensitive, 100%); biotin on the Avitag)
T3 construct: Scalloped (Sd), Drosophila homolog of human TEAD, UniProtKB P30052, residues 223-440, with Lys350Ala; Mutation introduced into wt^Sd; source: E. coli, purified in a similar manner to wt^Sd, treated with Myristoyl-Coenzyme A
T3 sequence (looked up): T1 sequence (looked up) with K128A

Kd [1]: 0.38 nM | Kd [2]: 0.37 nM | Kd [3]: 2.3 nM
B1: Vestigial, residues 263-382 (Vg^263-382) (domain or fragment, Drosophila melanogaster, UniProt Q26366 263-382, looked up)
chain: ETPMGSGGGGLAGSGQGQAQYLSASCVVFTNYSGDTASQVDEHFSRALNYNNKDSKESSSPMSNRNFPPSFWNSNYVHPIPAPTHHQVSDLYGTATDTGYATDPWVPHAAHYGSYAHAAH

Kd [1]: 9.5 nM | Kd [2]: 4.9 nM | Kd [3]: 14 nM
B2: Yorkie, residues 30-146 (Yki^30-146) (domain or fragment, Drosophila melanogaster, UniProt Q45VV3 30-146, looked up)
chain: SNNLVVRVNQDTDDNLQALFDSVLNPGDAKRPLQLPLRMRKLPNSFFTPPAPSHSRANSADSTYDAGSQSSINIGNKASIVQQPDGQSPIAAIPQLQIQPSPQHSRLAIHHSRARSS

Reference: publication PMC8942982, “The role of lysine palmitoylation/myristoylation in the function of the TEAD transcription factors” (Scientific Reports, 2022)
